In one experiment the target is T1, Rabbit TFPI (rabbit, UniProt P19761 25-300, limits assumed).
T1 sequence (looked up): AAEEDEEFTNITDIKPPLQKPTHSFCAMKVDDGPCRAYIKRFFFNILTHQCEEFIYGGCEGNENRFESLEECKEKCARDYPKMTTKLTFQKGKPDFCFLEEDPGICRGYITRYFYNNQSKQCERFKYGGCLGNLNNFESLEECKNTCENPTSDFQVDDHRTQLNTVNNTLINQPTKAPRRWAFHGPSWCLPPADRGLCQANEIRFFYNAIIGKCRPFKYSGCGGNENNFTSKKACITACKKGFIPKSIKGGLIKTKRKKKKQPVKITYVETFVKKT
In words: SPR (Biacore 3000), mAb captured on immobilised anti-mouse IgG, TFPI in solution, 1:1 model. Here is the method:
(§1) Binding interaction analysis was obtained by Surface Plasmon Resonance in a Biacore 3000. Capture of the relevant monoclonal antibody at a fixed concentration was obtained with immobilised mouse anti-IgG. Different concentrations of TFPI were tested. Determination of binding constants (kₒₙ, koff, KD) was obtained assuming a 1:1 interaction of TFPI and the antibody of interest.

Another experiment deals with T2, full length human TFPI (human, UniProt P10646 29-304).
T2 construct: also called wild type (wt) TFPI; TFPI Fl
T2 sequence: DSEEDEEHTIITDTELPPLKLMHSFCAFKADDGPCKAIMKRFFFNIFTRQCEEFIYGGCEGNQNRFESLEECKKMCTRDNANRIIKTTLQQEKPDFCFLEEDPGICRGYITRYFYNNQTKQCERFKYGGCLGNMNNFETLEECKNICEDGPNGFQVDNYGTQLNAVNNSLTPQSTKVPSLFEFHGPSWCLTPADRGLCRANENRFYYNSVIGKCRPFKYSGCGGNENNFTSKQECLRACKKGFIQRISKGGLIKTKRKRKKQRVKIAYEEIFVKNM
The description is as above. Here is the method: as §1

The target in another experiment is T3, truncated TFPI (1-239) (human, UniProt P10646 29-267).
T3 construct: Expressed in HEK293-F cells; conditioned medium used
T3 sequence: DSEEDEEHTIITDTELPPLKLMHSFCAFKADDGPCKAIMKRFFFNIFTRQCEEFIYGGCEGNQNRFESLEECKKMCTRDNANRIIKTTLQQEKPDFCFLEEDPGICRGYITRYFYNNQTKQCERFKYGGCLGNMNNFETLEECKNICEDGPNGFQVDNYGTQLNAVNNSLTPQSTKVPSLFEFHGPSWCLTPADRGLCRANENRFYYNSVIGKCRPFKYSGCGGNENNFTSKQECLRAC
In words: binding of TFPI variants to anti-TFPI MAbs relative to TFPI-WT (=1.0); ELISA or ForteBio with HEK293-F conditioned medium, Example 7. On the procedure:
(§2) The effect of truncating the C-terminal tail of TFPI on TFPI's binding affinity to MuTFPI22F66, MuTFPI22F71, MuTFPI22F74, MuTFPI22F79 and MuTFPI22F132 was analyzed by means of ELISA, or real-time binding analysis, using the ForteBio platform. […] The ELISAs, or the real-time binding analyses, were carried out using the conditioned medium from the cell cultures.
(§3) The concentrations of wt TFPI and truncated TFPI mutants in the conditioned medium were estimated by means of an ELISA that binds TFPI K1-K2 (Goat anti-TFPI, in-house) and K2 (MAb4F36, in-house). The binding to these antibodies is not affected by the truncations. Alternatively, biotin-labelled MAb4F36 was captured on streptavidin coated BioSensor tips (ForteBio) and used for concentration estimations.
(§4) In the ELISA setting, the effect of the mutations on TFPI's ability to bind to MuTFPI22F66, MuTFPI22F71, MuTFPI22F74, MuTFPI22F79 or MuTFPI22F132 was analyzed using each of the listed MAbs as capturing antibody and using MAb4F36 for detection. Direct binding of TFPI variants to biotin-labelled MuTFPI22F66, MuTFPI22F71, MuTFPI22F74, MuTFPI22F79, and MuTFPI22F132, captured on streptavidin coated BioSensor tips (ForteBio), was measured using the ForteBio platform.
For orientation: An ELISA detects its analyte on a solid surface through an enzyme-linked reagent.

The target of a further experiment is T4, truncated TFPI (1-240) (human, UniProt P10646 29-268).
T4 construct: Expressed in HEK293-F cells; conditioned medium used
T4 sequence: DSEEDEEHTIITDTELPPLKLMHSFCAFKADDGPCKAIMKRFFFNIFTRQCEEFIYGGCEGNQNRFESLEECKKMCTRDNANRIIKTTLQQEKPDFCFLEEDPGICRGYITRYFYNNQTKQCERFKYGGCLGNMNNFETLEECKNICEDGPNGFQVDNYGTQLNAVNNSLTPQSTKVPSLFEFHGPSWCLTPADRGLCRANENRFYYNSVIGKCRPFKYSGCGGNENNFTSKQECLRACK
Described as above. On the procedure:
as §2, §3, §4

B1: MuTFPI22F71 (antibody, mouse IgG1, V domains shown)
VH: EVQLQQSGTVLARPGASVKMSCKASGYSFTTYWIHWVKQRPGQGLEWIGAIDPGNSDATYSQKFKDKAKLTAVTSASTAFMELNSLTNDDSAVYYCSREVYYGYDGDYFDYWGQGTTLTVSS
VL: DIVLTQSPASLAVSLGQRATISCRASESVSVHGTHLMHWYQQKPGQPPKLLIYAASKLESGVPARFSGSGSETDFTLNIHPVEEEDAATYFCQQSIGDPWTFGGGTKLEIKR
notes: also called anti-TFPI22F71
With B1, the Kd in the experiment with Rabbit TFPI is 0.18 nM; with full length human TFPI, 0.8 nM. Besides, the binding result with truncated TFPI (1-239) is given as “no binding”.

B2: MuTFPI4F110 (antibody, mouse IgG1, V domains shown)
VH: QVQLQQSGAELVKPGASVKLSCKASGYTFISYYMYWVKQRPGQGLEWIGEINPSNGDTNLNEKFKSKATLTVDKSSSTVYMQLSSLTSEDSAVYYCTRWDRFDGFVYWGQGTLVTVSA
VL: ETTVTQSPASLSMAIGGKVTIRCIISTNIDDDINWYQQKPGEPPKLLISEGNTLRPGVPSRFSSSGYGTDFVFTIENMLSEDVADYYCLQSDDLPYTFGGGTKLEIKR
notes: also called anti-TFPI4F110; mAb 4F110
Turning to B2, the Kd with full length human TFPI worked out at 0.002 nM.

B3: MuTFPI22F66 (antibody, mouse IgG1, V domains shown)
VH: EVQLQQSGPELVKPGASMKISCKASGYSFTGYPMNWVRQSHGKNLEWIGLINPYNGDTTFNQKFKGKATLTVDKSSSTAYMELLSLTSEDSAVYYCARGTYEYVDYWGQGTTLTVSS
VL: QIVLTQSPTIMSASPGERVTMTCSASSSVFYMHWYQQKPGSSPRLLIYDTSILSSGVPVRFSGSGSGTSYSLTIRRMEAEDAATYYCQQWSSYPLTFGAGTKLELKR
notes: also called anti-TFPI22F66
B3: the Kd with Rabbit TFPI was 3.76 nM; with full length human TFPI it was 0.6 nM. The binding result with truncated TFPI (1-239) and with truncated TFPI (1-240) was “no binding” throughout.

By Kd is commonly meant the concentration at which binding is half-saturated.

The record behind these values is patent US20130253173A1 (Novo Nordisk, published 2013).
